{"source": "the DeepSol protein solubility set"}
{"experiment": "soluble on expression in E. coli; label from the status in PepcDB or PDB records"}
{"sequence": "MGSSHHHHHHSSGLVPRGSHMANVAIIGTEKSGRTSLAANLGKKGTSSDITMYNNDKEGRNMVFVDAHSYPKTLKSLITALNISDIAVLCIPPQGLDAHTGECIIALDLLGFKHGIIALTRSDSTHMHAIDELKAKLKVITSGTVLQDWECISLNTNKSAKNPFEGVDELKARINEVAEKIEAENAELNSLPARIFIDHAFNVTGKGCVVLGVVKQGISKDKDKTKIFPLDRDIEIRSIQSHDVDIDSAPAGTRVGMRLKNVQAKDIERGFIISDKEIVTTDYTLECTVSKFTKKIEPASVLHLFVGLQSEPVRVEKILVDGNEVEEAKPGSTCVLELSGNKKLAYSKQDRFLLANLDLTQRFAAYGFSK", "soluble on expression in E. coli": "soluble"}
{"sequence": "GSHMAIDENKQKALAAALGQIEKQFGKGSIMRLGEDRSMDVETISTGSLSLDIALGAGGLPMGRIVEIYGPESSGKTTLTLQVIAAAQREGKTCAFIDAEHALDPIYARKLGVDIDNLLCSQPDTGEQALEICDALARSGAVDVIVVDSVAALTPKAEIEGEIGDSHMGLAARMMSQAMRKLAGNLKQSNTLLIFINQIRMKIGVMFGNPETTTGGNALKFYASVRLDIRRIGAVKEGENVVGSETRVKVVKNKIAAPFKQAEFQILYGEGINFYGELVDLGVKEKLIEKAGAWYSYKGEKIGQGKANATAWLKDNPETAKEIEKKVRELLLSNPNSTPDFSVDDSEGVAETNEDF", "soluble on expression in E. coli": "soluble"}
{"sequence": "MSQPVAFVTGCSSGIGRALADAFQRAGYRVWASARKEDDVRALAEAGFQAVQLDVNDAAALARLAEELGVEAAGLDVLVNNAGYGAMGPLLDGGVEAMRRQFETNVFAVVGVTRALFPLLRRKSGLVVNVGSVSGVLVTPFAGAYCASKAAVHALSDALRLELAPFGVEVLEVQPGAIASNFGASASREMDSVVDERSPWWPLRRQIQARAAASQDNPTSAEDFARQLLAAVQRRPRPPLVRIGNGSRALPALARWLPRGLLERLLKKRFGLDTRL", "soluble on expression in E. coli": "not soluble"}
{"sequence": "GPGSMSEKEGKVIPETNGMKRPRFDPVKLGLPEEFTLTDYTRLKGCSCKVPQPELLALLQSVSTTPGRRDVGMDCSIVKLQHKDETGKPLYMVSTTDFFFPSVEDPYLQGQIGAANVLSDLYSTGIDRCDTVLMLLAASTDMDKTEREVCTQEMMKGFVDHVRLAGSDVTGGQTVMNPWPLIGGIATSVVAESQMIRPTGLQPGDILVLTKPLGCQIAVNLKQWLRRPSPIFEEQIQGKMDSEEIEELYNAAADGMKRLNRMAAALMHSHGAHGATDVTGFGILGHAKNLGSAQKADVCLVLDSLPMYRGAVKASKLMGDKYRLFEGYAAETSGGLLVAFGTREEAEGYIRELYETDGEPAWVVGRVVRREGSAPYALLQKDYKIIEVGAKVNDKII", "soluble on expression in E. coli": "soluble"}
{"sequence": "MSLEKHRMLVIDDDPIAHQIMQMLFEAELRLTCKVTGEEGLSAVEEEQPEIVLLDIEMEGMDGYEACRRIRQLNLPSQPYIIFVSAHSDPVKRLAAYSVGGEDFVSKPLQPQELTRKVEQALRYRREGHHHHHH", "soluble on expression in E. coli": "not soluble"}
{"sequence": "MALLILFFLLGLSFSLEVFSEKLEIKENEIIAEGDAEAYYKNYYIKAKKIKLLRDKDEVYAYEDVYIKNLKTGFEIRGSFAYVNMKKNKGYFLNAKGKFREFNFEAKKIEQLDKERFKVYEATVTTCPLDDKELYLCIFRANITKERALIFHNRLKFFKVPIFYLPVYLIPLGGRKTGFLMPTIGSSTYSSFIYIQPFFWAISRDKDMTITADYRKDQMKGLSLEYRQAFDEESDLITQFSLYKEDKKKGDWWKGREMYRENRFRIFMKYRKKPFKIGVEELSDPYYYEDISFKQEEITKPYTKTYLIYEKETKNYLFYFQTVRYRDLTEEKNNAVNLLPEASFHLKPFYYKGFNFSLDSSFTNFYRNYDGSFMRISLEPTVGKYFELFKVSNYSSLTLINRYYPDSEEDKIVSTFRFRHSVPQYFSLSYGGFKFKNFLEGLYTFSPKDYEVQIFDYQDELNEENNFQFTLVGNLYKNRKLMDYFLNTGYNLLGSYTFPTDGKKIDKKLLPLYYNVSVYPVENVRFWQDAVYDFNLGVFARNVIGTDISWKNFSVGISNSVYKNSEKKVTTDQIALNLKYSGDKFFSGISLNYDRLVDKETYRNVYVGVKGKCWSLVLDYKRNYYRNRDEYVDQVFLRFNLFFKEEIEIPLRR", "soluble on expression in E. coli": "not soluble"}
{"sequence": "MSLKNVTEKNREIYKQLNDRQEEISRLQRDLIQTKEQVSINSNKILVYESEMEQCKQRYQDLSQQQKDAQKKDIEKLTNEISDLKGKLSSAENANADLENKFNRLKKQAHEKLDASKKQQAALTNELNELKAIKDKLEQDLHFENAKVIDLDTKLKAHELQSEDVSRDHEKDTYRTLMEEIESLKKELQIFKTANSSSDAFEKLKVNMEKEKDRIIDERTKEFEKKLQETLNKSTSSEAEYSKDIETLKKEWLKEYEDETLRRIKEAEENLKKRIRLPSEERIQKIISKRKEELEEEFRKKLKENAGSLTFLDNKGSGEDAEEELWNSPSKGNSERPSAVAGFINQKNLKPQEQLKNVKNDVSFNDSQSMVTNKENNIVDSSAAGNKAIPTFSFGKPFFSSNTSSLQSFQNPFTASQSNINTNAPLRTLNIQPEVAVKAAINFSNVTDLTNNSTDGAKITEIGSTSKRPIESGTSSDPDTKKVKESPANDQASNEEGHHHHHH", "soluble on expression in E. coli": "soluble"}
{"sequence": "MSELQNPKPSSLSRDAFIATYADIYEHSPWVAEQAFNQDAGPELDQLDTLHARLSDILLNATHAQQLALINAHPDLAGKAAVKGELTQASTDEQAGAGIHLCTPDEFQRFTELNGAYKARFGFPFIMAVKGSDRHKILAAFEQRIHHSPEAEFACALAEINKIALFRLQALHASQAAAALEHHHHHH", "soluble on expression in E. coli": "soluble"}
{"sequence": "NLNSIQNFGAIDILCTDKTGTLTQDKVVLEYHLNVNGEDDTRVLRHAYLNSYFQTGYKNLMDLAIIHKTEEEEAADSRLIDLSENYVKVDEIPFDFTRRRLTTVVQDNKGKTQMVTKGAVEEMLSICAFAECNGGVQPLTDDVRYRILETVDNLNDKGFRVLAIAQKSNPSPIGAFGVKDECDMVLIGYLAFLDP", "soluble on expression in E. coli": "not soluble"}
{"sequence": "MNYPAEPFRIKSVETVSMISRDERVKKMQEAGYNTFLLNSKDIYIDLLTDSGTNAMSDKQWAGMMIGDEAYAGSENFYHLEKTVKELFGFKHIVPTHQGRGAENLLSQLAIKPGQYVAGNMYFTTTRFHQEKNGATFVDIVRDEAHDASLNLPFKGDIDLNKLATLIKEKGAENIAYICLAVTVNLAGGQPVSMANMRAVHEMASTYGIKIFYDATRCVENAYFIKEQEAGYENVSIKDIVHEMFSYADGCTMSGKKDCLVNIGGFLCMNDEEMFSAAKELVVVYEGMPSYGGLAGRDMEAMAIGLREAMQYEYIEHRVKQVRYLGDKLREAGVPIVEPTGGHAVFLDARRFCPHLTQDQFPAQSLAASIYMETGVRSMERGIVSAGRSKETGENHRPKLETVRLTIPRRVYTYAHMDVVADGIIKLYQHKEDIRGLTFVYEPKQLRFFTARFDFI", "soluble on expression in E. coli": "soluble"}
{"sequence": "MSLGKLIVPILKSPSHLGHSSSRVNRLYNEDKYSANLLQVKESQIFNFSIFDGHGGDQCSTYLAENLSLALEDLDQLVENDNDRQELFKKYAKNVGGYWKRWYKHRDNTVANWEKERIKLKNFLSDDLATRVPLAFLNADYNFFSKEQKSGSTCTSAMIETIYSKPGTFQPFFENYYFNRHTISKLSIGHLGDTRAIVADKNGLAHTLTTDHHPLNPIEAKRLRKYAANFFMTDSFGEERFVALANTRAFGDVDYKEVGVTAEPDFNQYIIGDLDAIKQFLTPDEIEKYTIGGLGGDESFLILCSDGVTNIMTDQEIADIVLTHVNLKGQTVATPQYCAEQVIKFVEFVGGDDNATCLVIRLNGWGNEGHHHHHH", "soluble on expression in E. coli": "not soluble"}
{"sequence": "MKETVTMLNQQYVVPEGLQPYQGVTANSPWLASETEKRRRKICDSLEEAIRRSGLKNGMTISFHHAFRGGDKVVNMVMAKLAEMGFRDLTLASSSLIDAHWPLIEHIKNGVVRQIYTSGLRGKLGEEISAGLMENPVQIHSHGGRVKLIQSGELNIDVAFLGVPCCDEFGNANGFSGKSRCGSLGYAQVDAQYAKCVVLLTEEWVEFPNYPASIAQDQVDLIVQVDEVGDPEKITAGAIRLSSNPRELLIARQAANVIEHSGYFCDGFSLQTGTGGASLAVTRFLEDKMRRHNITASFGLGGITGTMVDLHEKGLIKALLDTQSFDGDAARSLAQNPHHIEISTNQYANPASKGAACERLNVVMLSALEIDVNFNVNVMTGSNGVLRGASGGHSDTAAGADLTIITAPLVRGRIPCVVEKVLTTVTPGASVDVLVTDHGIAVNPARQDLLDNLRAAGVALMTIEQLQQRAEQLTGKPQPIEFTDRVVAVVRYRDGSVIDVIRQVKG", "soluble on expression in E. coli": "soluble"}
{"sequence": "MGSDKIHHHHHHLKALVVGLGSIGVRHLNNLHALEVRELGVVRSRNFPPPTEIVPKDIAVFQDIDLALSRKFDLVVVANPTSLHLETLIKALRAGSHVYVEKPVAHEKRRLSELTRYVSLDGPRVLVGCQFRMHPGLRKIEGWIRQGKLGKIHSVQVDLGEYLPGWHPWEDYRQSYAARADQGGGVVLTLIHELDYLHWLFGKPKSVFAIGGHRTSLDITAEDTALITFETEQDICVQLRMDYWRKPPVRHMNIVAENAIVDWDYPTRLTTLRQNGQVLDEMVLVPSWDRNELFLSMMKEFIEGIPRGSIPRVTLRDGIEVLKTALAVKKSLQTHRKVAL", "soluble on expression in E. coli": "not soluble"}
{"sequence": "MGSDKIHHHHHHMKAQSALSVKEANFKAMTTFIYTQGSATKQMFEHELGLSLPTITQNLRAMEADGLIVKGEMQKSTGGRKAQIYEFAAHSSVAIGVRIQTTRITAIAIDLNGKSVATRQRTLPYRNNDAYYQRMNDIINGFAQELAKQGSTVLGVAFCMQGIVSADGQSITFGKIMNNTGLKLSELSHGLNYPSLMIHDSDASAMAELWFDHNLKDAVCIYLERRPGGAVIVDGSLYQGPNQCNGSIEHMTLIPGGNTCYCGQQGCMDTYCSPETLMEDGESLPGFFSVLEQGEQEHRKRFSQWLDYVALAVTNIRSVLAGDVIISGEAAQYLDDDDMAGLRERVVEHTPFGTTDFTLRKGMALDHQDIIGAALRFVEPYVRELCDM", "soluble on expression in E. coli": "not soluble"}
{"sequence": "MSLDIAELHRAGDDIKEMMKSEGYYSEPSKYEAELSDGNITFAYSYPIKAFEKFLGYYDRENRIAFNPSISMRTDFSFCLAACRYRKNGKTDTVVLDGYADNKYYKKAKFALDKFRSEYSINGSFDFYIKRYRRYQKAKGLSESSAVAAAVSRALISNVFGDDAAKDDIFVSRYARLVSGSGTRAAHDGISMWLSYPGMDSRDCVAFKVGKSNENLNYGVFPKYSDVATDNAHSIAVNSVFYGTWVSEKFSNVKRLISDHFDINDLLKIGENDMLRLNSILMSGGLIIQTPDSLRILKEILKFKSKNEGFYFTADTGPSIAIFSFDRSLIDEFRENVNDEYIEGSYDFKGYNNRMRDFIREAQEYFTQTPGEDEEDREGHHHHHH", "soluble on expression in E. coli": "soluble"}
{"sequence": "MAQLFFKYGAMNSGKTIEILKVAHNYEEQDKPVVLMTSGLDTRDGVGKVSSRIGLRRDAIPIFEETNVFDLINDLSYKPFCVLVDECQFLNKHHVIEFARIVDELDIPVMAFGLKNDFRNELFEGSKYLLLYADKLEELKTICWFCHKKATMNLHYIDGNPVYEGDQVQIGGNEAYYPVCRKHYFHPKTVNEEQ", "soluble on expression in E. coli": "not soluble"}
{"sequence": "MEVFLLKLDSKNCPNKRLKTLEEVPENTAITVGNFDGVHLGHRYLIENLKKKAKSENLKTLVLTFCPHPLKVLAPQLLPCELTDINEKIEIFRELGVDYLCFIRFDKEFAKIRAREFLEKIIYEKLKCRYLLVGYDWRYGYRREGEIELAKEVGSELGFEVEEAKPFKIKGHIVSSTLIRRLLREGRVEEVREYLGHNYWVKRKVVKGDQRGSKIGFPTANLQNTENLCLKEGVYAVKVEDKYLGVANYGYRPTFGKKKRVLEVHILDFEGNLRGKRIKVEFLKFIREEKKFSSVEELIQQIKKDVEAVKGLSKLEHHHHHH", "soluble on expression in E. coli": "soluble"}
{"sequence": "MGSDKIHHHHHHMENTSYIALSRQTALWRQLDVVSNNLANMNTNGYQAEQTLFSEYLMNTRDSHFRLPEKLAYTQDAGTYRDLTAGPLEHTGNPLDLAINGEGYFEVEDGAGPAYTRGGRFTLDAEGKVVTADGRPLMTDAGTPLVIAPNEGEVTISATGTVSTENGPVGKLRLVSFEDEQKLRRIGGGLFDSGDQQANPITEPRIEQGMIEKSNVNPVVEMTRMIQVQRSYEAANKLIESENDRQLNAYAVLSGTK", "soluble on expression in E. coli": "not soluble"}
